In patent US9545446B2, “Agonists of guanylate cyclase and their uses” (priority 2013, dated 2017):
Bridges are numbered along the chain shown (N, C = ends). Where no end group is shown, it is not given here. [ ]: non-standard residue; d: D form.

Key:
[1] = system: healthy subjects; experiment: Phase I single ascending oral dose study of SP-333; type: in vivo, human
Method: Two phase 1 clinical studies with SP-333 have been completed to date and a Phase 2 trial in OIC is in progress. In the Phase I single ascending oral dose study, conducted in 64 healthy subjects, the following doses of SP-333 were tested: 0.1, 0.3, 1, 3, 10, 20, 30, and 60 mg. […] Diarrhea was the most common adverse event and was generally dose-related, with 1 mg being the threshold dose. The time to onset of diarrhea was variable but tended to decrease with increasing doses from 4 to 2 hours or less. The number of subjects with watery bowel movement rose from none (<3 mg) to 2 of 6 (3, 10 and 20 mg) to 4 of 6 (30 mg). The majority of these episodes was mild, occurred once, and was associated with urgency and in some cases mild cramping. There were no SAEs.

[2] = system: patients scheduled to undergo colonoscopy; experiment: Phase 1 pilot clinical study: oral SP-333 as adjunct to SUPREP Bowel Prep Kit for cleansing of the colon prior to colonoscopy; type: in vivo, human
Method: This clinical study outlined above was designed to assess the effect of a single oral dose of 6 mg SP-333 when given concurrently with a standard pre-colonoscopy bowel prep—the SUPREP® Bowel Prep Kit (Braintree Laboratories, Braintree, Mass. 02185, USA). The investigator is a highly experienced gastroenterologist and oversaw all study activities and performed all colonoscopies per their usual routine.
• 1. Take Study Drug approximately 30 minutes before the start of the first bottle of the bowel prep kit. • 2. Take a 6 ounce bottle of study preparation and pour the entire contents into the mixing cup provided. Fill the cup with cool water to the fill line (16 ounces) and drink the entire cup of solution. • 3. Drink two (2) 16 ounce glasses of WATER over the next hour. Fill the mixing cup with water up to the fill line (16 ounces) and drink the entire glass. Morning of Colonoscopy
At least 3 hours prior to colonoscopy: • 1. Take the second 6 ounce bottle of study preparation and pour the entire contents into the mixing cup provided. Fill the cup with cool water to the fill line (16 ounces) and drink the entire cup of solution. • 2. Drink two (2) 16 ounce glasses of WATER over the next hour. Fill the mixing cup with water up to the fill line (16 ounces) and drink the entire glass. • Patient must complete the solution and additional water at least 2 hours before colonoscopy.
The primary endpoint of this study was bowel preparation treatment success as determined by the investigator (bowel preparation will be rated by the Investigator as “Excellent”, “Good”, “Fair” or “Poor”). A successful bowel preparation treatment is defined as bowel cleansing graded either “Excellent” or “Good” by the investigator (See Table 10).
Patients were consented for the study at the same time that informed consent was obtained for the colonoscopy procedure. Each successfully consented & recruited patient took a single dose of 6 mg SP-333 in the evening before the colonoscopy—approximately 30 minutes prior to ingestion of the first bottle of the SUPREP® Bowel Prep Kit (See Section entitled “Patient Instructions for SUPREP® Bowel Prep Kit” above).
Bowel preparation treatment success rate was described; formal hypothesis testing was not performed.
The volume of intra-procedural water required to improve visualization, the proximal insertion depth of the colonoscope and whether or not the right colon and cecum were completely visualized were recorded in the Colonoscopy Procedure Record.

[3] = system: healthy volunteers; experiment: Phase I multiple ascending dose study of SP-333; type: in vivo, human
Method: […] The maximum tolerated dose was 30 mg with 60 mg deemed an intolerable dose due to 2 instances of fecal incontinence or soiling in the 7 patients dosed with 60 mg SP-333.

[4] = target: intestinal GC-C receptor (Homo sapiens, UniProt P25092); experiment: in vitro and in vivo pharmacology studies (GC-C agonism); conditions: several in vitro and in vivo pharmacology studies
[5] = Phase 1 pharmacokinetic sampling (systemic absorption after oral dose); type: in vivo, human; conditions: oral doses <10 mg
Method: Phase 1 pharmacokinetic sampling indicated no detectable (limit of quantitation=1 ng/mL) systemic absorption of SP-333 following oral doses <10 mg; it is therefore highly unlikely that a single oral dose of 6 mg SP-333 will result in any systemic exposure.

[6] = 6 mg SP-333 added to standard colonoscopy cleansing preparation (SUPREP), 9 patients
[7] = 6 mg oral daily dose, healthy volunteers

intestinal GC-C receptor, sequence (P25092 24-1073): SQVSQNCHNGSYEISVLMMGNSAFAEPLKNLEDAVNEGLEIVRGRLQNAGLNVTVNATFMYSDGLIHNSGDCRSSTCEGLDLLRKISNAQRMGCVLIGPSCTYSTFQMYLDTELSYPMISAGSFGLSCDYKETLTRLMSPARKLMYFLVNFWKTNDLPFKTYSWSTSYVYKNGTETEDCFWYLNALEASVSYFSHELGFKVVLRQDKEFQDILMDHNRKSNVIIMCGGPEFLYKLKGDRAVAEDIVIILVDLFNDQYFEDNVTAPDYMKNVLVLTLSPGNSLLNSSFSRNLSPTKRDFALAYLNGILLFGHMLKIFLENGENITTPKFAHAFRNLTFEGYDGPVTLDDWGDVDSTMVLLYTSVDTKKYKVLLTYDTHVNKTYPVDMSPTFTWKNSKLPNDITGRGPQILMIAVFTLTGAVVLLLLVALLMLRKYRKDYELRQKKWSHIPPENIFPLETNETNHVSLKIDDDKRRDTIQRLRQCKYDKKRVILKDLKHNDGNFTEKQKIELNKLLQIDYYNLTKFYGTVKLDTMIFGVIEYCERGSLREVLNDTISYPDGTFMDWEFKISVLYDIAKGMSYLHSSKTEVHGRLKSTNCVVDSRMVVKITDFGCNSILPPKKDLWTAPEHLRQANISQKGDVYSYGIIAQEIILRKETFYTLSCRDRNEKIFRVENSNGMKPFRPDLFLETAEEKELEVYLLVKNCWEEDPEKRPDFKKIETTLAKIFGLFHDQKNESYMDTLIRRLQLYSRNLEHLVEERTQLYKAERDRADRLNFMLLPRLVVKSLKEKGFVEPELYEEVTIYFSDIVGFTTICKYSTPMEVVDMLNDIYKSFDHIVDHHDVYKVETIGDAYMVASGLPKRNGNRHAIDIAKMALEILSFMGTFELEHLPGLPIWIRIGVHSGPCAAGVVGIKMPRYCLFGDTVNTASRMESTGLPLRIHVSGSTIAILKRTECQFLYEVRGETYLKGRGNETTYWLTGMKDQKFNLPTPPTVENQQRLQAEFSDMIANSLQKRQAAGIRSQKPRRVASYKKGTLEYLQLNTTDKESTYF

Substance: dAsn^1-Asp^2-Glu^3-Cys^4-Glu^5-Leu^6-Cys^7-Val^8-Asn^9-Val^10-Ala^11-Cys^12-Thr^13-Gly^14-Cys^15-dLeu^16 ([dN]DECELCVNVACTGC[dL]; disulfide 4-12, 7-15) [SP-333]
- severity of the majority of watery bowel movement episodes ([1]; occurred once, associated with urgency, in some cases mild cramping): mild
- changes in clinical laboratory test results, ECG or vital signs ([1]; single ascending oral dose): No clinically meaningful changes
- serious adverse events (SAEs) ([1]; single ascending oral dose): no SAEs
- threshold dose for diarrhea ([1]; single ascending oral dose): 1 mg
- most common adverse event ([1]; single ascending oral dose, generally dose-related): Diarrhea
- number of subjects with watery bowel movement ([1]; single oral dose 30 mg): 4 of 6
- number of subjects with watery bowel movement ([1]; single oral dose 3, 10 and 20 mg): 2 of 6
- number of subjects with watery bowel movement ([1]; single oral dose <3 mg): none
- overall safety and tolerability ([1]; single oral doses 0.1, 0.3, 1, 3, 10, 20, 30, 60 mg, 64 healthy subjects): safe and well tolerated
- time to onset of diarrhea ([1]; variable, tended to decrease with increasing doses, to 2 hours or less): 4 to 2 hours
- colonoscopy procedure outcome [2, 6]: safe and successful procedure
- visualization of the colon as observed by the gastroenterologist [2, 6]: better visualization of the entire colon
- tolerability of combination with standard colonoscopy preparation ([2]; single oral 6 mg SP-333 evening before colonoscopy plus SUPREP Bowel Prep Kit, 9 patients): very well
- ease of preparation as judged by subjects with previous colonoscopies ([2]; versus past colon cleansing preparation without SP-333): much easier
- additional AEs [3, 7]: No additional AEs of note
- effect of dose in Phase 1 studies (basis of dose selection) [3, 7]: self-limited diarrhea (watery stools) with mild urgency
- instances of fecal incontinence or soiling ([3]; 60 mg daily for 7 days, 7 patients dosed): 2
- changes in hematology, clinical chemistry, or urinalysis parameters ([3]; any dose level): no clinically meaningful changes
- changes in vital sign or ECG parameters ([3]; any dose level): no clinically meaningful changes
- overall safety and tolerability ([3]; daily 0.3, 1, 3, 10, 30 mg for 14 days or 60 mg for 7 days, 89 subjects): generally safe and well-tolerated
- maximum tolerated dose ([3]; daily doses for 14 days): 30 mg
- intolerable dose ([3]; daily for 7 days, due to fecal incontinence or soiling): 60 mg
- most commonly reported TEAEs (treatment-emergent adverse events) ([3]; mild or moderate intensity): gastrointestinal disorders (primarily diarrhea and defecation urgency)
- subjects with a serious adverse event (SAE) ([3]; multiple ascending dose): no subject
- subjects withdrawn from the study due to a TEAE ([3]; multiple ascending dose): no subject
- agonism of the intestinal GC-C receptor [4]: potent agonist
- systemic absorption (not detectable; limit of quantitation) [5]: < 1 ng/mL
